In patent US20110008766A1 (AbbVie / Abbott, published 2011) one finds Kd data, which are given here for eleven molecules.

Where only a bound is given, the exact number is not on record here.

For experiment [1], the target named is T1, neutrophil gelatinase associated lipocalin (NGAL) (UniProt P80188 21-198).
T1 construct: also called recombinant NGAL
Put plainly: FRET quenching titration in solution; ALEXA 488-antigen, BHQ-labelled binder. How it is done: (§1) Briefly, the dissociation constants for the outer variable binding domain and the inner variable binding domain of a given DVD-Ig and its corresponding antigen were measured in direct binding experiments. […] After 30 minutes of incubation, all samples were measured on an SLM 8100 photon counting spectrofluorimeter. Samples were excited at 480 nm, and the emission was collected through a 530 nm (30 nm bandwidth) interference filter (Chroma Technology Corp., Rockingham, Vt.). All binding measurements were performed in 10 mM HEPES buffer, pH 7.4, containing 0.15 M NaCl, 3 mM EDTA, and 0.005% surfactant P20.
(§2) where Ligandₜₒₜₐₗ and ABSₜₒₜₐₗ are the -antigen concentrations and the total DVD-Ig binding sites for that antigen, respectively, and Fbound is the fraction of bound antigen. The binding data were fitted with a simple binding model to obtain the equilibrium dissociation constant (KD) according to equation [2]: […]

Experiment [2] deals with T2, brain natriuretic peptide (BNP) (UniProt P16860 103-134).
T2 construct: ALEXA Fluor 488-labelled in the FRET assay
The experiment can be described thus: FRET quenching titration in solution; one value given for outer and inner domain. How it is done:
as §1, §2

The target in the next experiment is T3, interleukin 18 (IL-18) (UniProt Q14116 37-193).
T3 construct: ALEXA Fluor 488-labelled in the FRET assay
The experiment can be described thus: FRET quenching titration in solution; outer domain (IL-18 1-4091); outer domain (IL-18 1-4091). How it is done:
as §1, §2

Experiment [3] concerns the target T1, neutrophil gelatinase associated …. The experiment can be described thus: FRET quenching titration in solution; inner domain (NGAL 1-2322-455); inner domain (NGAL 1-2322-455). How it is done:
as §1, §2

Experiment [4] addresses T2, brain natriuretic peptide (BNP). The experiment can be described thus: FRET quenching titration in solution; ALEXA 488-antigen, BHQ-labelled binder. How it is done: as §1, §2
The target of experiment [5] is T1, neutrophil gelatinase associated …. The experiment can be described thus: FRET quenching titration in solution; one value given for outer and inner domain. How it is done: as §1, §2
Experiment [6] shares this target. The experiment can be described thus: FRET quenching titration in solution; one value printed for outer (2322) and inner (903) domain. The protocol: as §1, §2

T1 sequence (P80188 21-198 limits assumed): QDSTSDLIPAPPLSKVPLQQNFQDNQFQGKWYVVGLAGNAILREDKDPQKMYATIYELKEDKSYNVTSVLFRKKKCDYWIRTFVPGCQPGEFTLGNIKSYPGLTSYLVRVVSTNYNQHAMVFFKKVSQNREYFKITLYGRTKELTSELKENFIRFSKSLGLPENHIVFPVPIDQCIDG

B1: AB083 (antibody, V domains shown)
VH: KIQLVQSGPELKKPGETVKISCKASGYTFTNYGMNWVKQAPGKGLKWMGWININTGEPTYAEEFKGRFAFSLETSATTAFLQINNLKNEDTATYLCARDSYSGGFDYWGQGTIVTVSS
VL: DIVMTQSPSSLSVSAGEKVTLSCKSSQSLLISGDQKNYLAWYQQKPGQPPKLLIYGASTRDSGVPDRFTGSGSGADFTLTISSVQAEDLAVYYCQNDHSFPPTFGAGTKLELKR
notes: also called AB083 (903); Chimeric mAb 903
In experiment [1], B1 yielded a Kd of 0.7 nM. This lies in the sub-nanomolar range.

B2: DVD736 (bispecific antibody)
VH: QVQLQQPGAELVRPGASVKLSCKASGYTFTSYWMNWVKQRPEQGLEWIGRIDPYDSETHYNQKFKDKAILTVDKSSSTAFVQLTSLTSEDSAVYYCVSDGYWGAGTTVTVSSASTKGPSVFPLAPQIQLVQSGPELRKPGETVKISCKGSGYTFTHYGINWVKQTPRKDLKWMGWINTHTGEAYYADDFKGRFAFSLETSANTAYLQINNLNNGDMGTYFCTRSHRFGLDYWGQGTSVTVSS
VL: DVVMTQTPLTLSVTTGQPASISCKSSQSLLDSDGKTYLNWLFQRPGESPKLLIYVVSKLESGVPDRFTGSGSGTDFTLKISRVEAEDLGVYYCLQATHFPWTFGGGTKLEIKRTVAAPSVFIFPPDNVLTQSPPSLAVSLGQRATISCKANWPVDYNGDSYLNWYQQKPGQPPKFLIYAASNLESGIPARFSGSGSGTDFNLNIHPVEEEDAATYYCQQSNEDPFTFGSGTKLEIKR
notes: also called DVD736H/DVD736L
On to B2, for which the Kd in experiment [2] is below 0.03 nM.

B3: DVD730 (bispecific antibody)
VH: QVQLQQPGSELVRPGASVKLSCKASGYTFTSYWMHWVKQRPGQGLEWIGNIYPGTVNTNYDEKFKNKATLTVDTSSSTAYMLLSSLTSEDSAVYYCTRDYYGGGLNYWGQGTTLTVSSASTKGPEVQLVESGGGLVQPGGSLKLSCAASGFTFNNYYMSWVRQTPERRLEWVAYISSSGGSTYYSDSVRGRFTISRDTARNTLYLQMTSLKSEDTAMYYCARHFGDYSYFDYWGQGTTLTVSS
VL: SIVMTQTPKFLLVSAGDRVTITCKASQSVSNDVAWFQQKPGQSPKLLIYYASNRYAGVPDRFTGSGFGTDFTFTISTVQAEDLAVYFCHQDYSSPRTFGGGTKLEIKRTVAAPDIQMTQSPASLSASVGETVTITCRASENFYSYLAWYQQKQGKSPQLLVYNAKTLAEGVPSRFSGSGSGTQFSLKINSLQPEDFGTYYCQHHYDIPLTFGAGTKLELKR
notes: also called DVD730 (IL18-2322-SS)
B3 gave a dissociation constant Kd with interleukin 18 (IL-18) of 0.6 nM.

B4: AB082 (antibody, V domains shown)
VH: EVQLVESGGGLVQPGGSLKLSCAASGFTFNNYYMSWVRQTPERRLEWVAYISSSGGSTYYSDSVRGRFTISRDTARNTLYLQMTSLKSEDTAMYYCARHFGDYSYFDYWGQGTTLTVSS
VL: DIQMTQSPASLSASVGETVTITCRASENFYSYLAWYQQKQGKSPQLLVYNAKTLAEGVPSRFSGSGSGTQFSLKINSLQPEDFGTYYCQHHYDIPLTFGAGTKLELKR
notes: also called AB082 (2322); Chimeric mAb 2322
Regarding B4, the Kd in experiment [1] was below 0.05 nM.

B5: DVD731 (bispecific antibody)
VH: QVQLQQPGSELVRPGASVKLSCKASGYTFTSYWMHWVKQRPGQGLEWIGNIYPGTVNTNYDEKFKNKATLTVDTSSSTAYMLLSSLTSEDSAVYYCTRDYYGGGLNYWGQGTTLTVSSASTKGPSVFPLAPEVQLVESGGGLVQPGGSLKLSCAASGFTFNNYYMSWVRQTPERRLEWVAYISSSGGSTYYSDSVRGRFTISRDTARNTLYLQMTSLKSEDTAMYYCARHFGDYSYFDYWGQGTTLTVSS
VL: SIVMTQTPKFLLVSAGDRVTITCKASQSVSNDVAWFQQKPGQSPKLLIYYASNRYAGVPDRFTGSGFGTDFTFTISTVQAEDLAVYFCHQDYSSPRTFGGGTKLEIKRTVAAPSVFIFPPDIQMTQSPASLSASVGETVTITCRASENFYSYLAWYQQKQGKSPQLLVYNAKTLAEGVPSRFSGSGSGTQFSLKINSLQPEDFGTYYCQHHYDIPLTFGAGTKLELKR
notes: also called DVD731 (IL18-2322-LL)
On to B5, for which the Kd with interleukin 18 (IL-18) was determined as 0.9 nM; in experiment [3], 0.08 nM.

B6: AB090 (antibody, V domains shown)
VH: QVQLQQPGAELVRPGASVKLSCKASGYTFTSYWMNWVKQRPEQGLEWIGRIDPYDSETHYNQKFKDKAILTVDKSSSTAFVQLTSLTSEDSAVYYCVSDGYWGAGTTVTVSS
VL: DVVMTQTPLTLSVTTGQPASISCKSSQSLLDSDGKTYLNWLFQRPGESPKLLIYVVSKLESGVPDRFTGSGSGTDFTLKISRVEAEDLGVYYCLQATHFPWTFGGGTKLEIKR
notes: also called BNP 3-631-436
B6 gave a dissociation constant (Kd) in experiment [4] of 0.3 nM. That is a sub-nanomolar value.

B7: DVD721 (antibody)
VH: KIQLVQSGPELKKPGETVKISCKASGYTFTNYGMNWVKQAPGKGLKWMGWININTGEPTYAEEFKGRFAFSLETSATTAFLQINNLKNEDTATYLCARDSYSGGFDYWGQGTIVTVSSASTKGPSVFPLAPKIQLVQSGPELKKPGETVKISCKASGYTFTNYGMNWVKQAPGKGLKWMGWININTGEPTYAEEFKGRFAFSLETSATTAFLQINNLKNEDTATYLCARDSYSGGFDYWGQGTIVTVSS
VL: DIVMTQSPSSLSVSAGEKVTLSCKSSQSLLISGDQKNYLAWYQQKPGQPPKLLIYGASTRDSGVPDRFTGSGSGADFTLTISSVQAEDLAVYYCQNDHSFPPTFGAGTKLELKRTVAAPSVFIFPPDIVMTQSPSSLSVSAGEKVTLSCKSSQSLLISGDQKNYLAWYQQKPGQPPKLLIYGASTRDSGVPDRFTGSGSGADFTLTISSVQAEDLAVYYCQNDHSFPPTFGAGTKLELKR
notes: also called DVD721 (903-903-LL)
As to B7, the Kd in experiment [5] was below 0.3 nM.

B8: DVD719 (antibody)
VH: EVQLVESGGGLVQPGGSLKLSCAASGFTFNNYYMSWVRQTPERRLEWVAYISSSGGSTYYSDSVRGRFTISRDTARNTLYLQMTSLKSEDTAMYYCARHFGDYSYFDYWGQGTTLTVSSASTKGPSVFPLAPEVQLVESGGGLVQPGGSLKLSCAASGFTFNNYYMSWVRQTPERRLEWVAYISSSGGSTYYSDSVRGRFTISRDTARNTLYLQMTSLKSEDTAMYYCARHFGDYSYFDYWGQGTTLTVSS
VL: DIQMTQSPASLSASVGETVTITCRASENFYSYLAWYQQKQGKSPQLLVYNAKTLAEGVPSRFSGSGSGTQFSLKINSLQPEDFGTYYCQHHYDIPLTFGAGTKLELKRTVAAPSVFIFPPDIQMTQSPASLSASVGETVTITCRASENFYSYLAWYQQKQGKSPQLLVYNAKTLAEGVPSRFSGSGSGTQFSLKINSLQPEDFGTYYCQHHYDIPLTFGAGTKLELKR
notes: also called DVD719 (2322-2322-LL)
On to B8, for which the dissociation constant Kd in experiment [5] was below 0.05 nM.

B9: DVD723 (bispecific antibody)
VH: EVQLVESGGGLVQPGGSLKLSCAASGFTFNNYYMSWVRQTPERRLEWVAYISSSGGSTYYSDSVRGRFTISRDTARNTLYLQMTSLKSEDTAMYYCARHFGDYSYFDYWGQGTTLTVSSASTKGPSVFPLAPKIQLVQSGPELKKPGETVKISCKASGYTFTNYGMNWVKQAPGKGLKWMGWININTGEPTYAEEFKGRFAFSLETSATTAFLQINNLKNEDTATYLCARDSYSGGFDYWGQGTIVTVSS
VL: DIQMTQSPASLSASVGETVTITCRASENFYSYLAWYQQKQGKSPQLLVYNAKTLAEGVPSRFSGSGSGTQFSLKINSLQPEDFGTYYCQHHYDIPLTFGAGTKLELKRTVAAPSVFIFPPDIVMTQSPSSLSVSAGEKVTLSCKSSQSLLISGDQKNYLAWYQQKPGQPPKLLIYGASTRDSGVPDRFTGSGSGADFTLTISSVQAEDLAVYYCQNDHSFPPTFGAGTKLELKR
notes: also called DVD723 (2322-903-LL)
Molecule B9 came in with a Kd in experiment [6] below 0.2 nM.

B10: DVD720 (antibody)
VH: EVQLVESGGGLVQPGGSLKLSCAASGFTFNNYYMSWVRQTPERRLEWVAYISSSGGSTYYSDSVRGRFTISRDTARNTLYLQMTSLKSEDTAMYYCARHFGDYSYFDYWGQGTTLTVSSASTKGPEVQLVESGGGLVQPGGSLKLSCAASGFTFNNYYMSWVRQTPERRLEWVAYISSSGGSTYYSDSVRGRFTISRDTARNTLYLQMTSLKSEDTAMYYCARHFGDYSYFDYWGQGTTLTVSS
VL: DIQMTQSPASLSASVGETVTITCRASENFYSYLAWYQQKQGKSPQLLVYNAKTLAEGVPSRFSGSGSGTQFSLKINSLQPEDFGTYYCQHHYDIPLTFGAGTKLELKRTVAAPDIQMTQSPASLSASVGETVTITCRASENFYSYLAWYQQKQGKSPQLLVYNAKTLAEGVPSRFSGSGSGTQFSLKINSLQPEDFGTYYCQHHYDIPLTFGAGTKLELKR
notes: also called DVD720 (2322-2322-SS)
Molecule B10 registered a Kd in experiment [5] below 0.07 nM.

B11: DVD738 (bispecific antibody)
VH: QIQLVQSGPELRKPGETVKISCKGSGYTFTHYGINWVKQTPRKDLKWMGWINTHTGEAYYADDFKGRFAFSLETSANTAYLQINNLNNGDMGTYFCTRSHRFGLDYWGQGTSVTVSSASTKGPSVFPLAPQVQLQQPGAELVRPGASVKLSCKASGYTFTSYWMNWVKQRPEQGLEWIGRIDPYDSETHYNQKFKDKAILTVDKSSSTAFVQLTSLTSEDSAVYYCVSDGYWGAGTTVTVSS
VL: DNVLTQSPPSLAVSLGQRATISCKANWPVDYNGDSYLNWYQQKPGQPPKFLIYAASNLESGIPARFSGSGSGTDFNLNIHPVEEEDAATYYCQQSNEDPFTFGSGTKLEIKRTVAAPSVFIFPPDVVMTQTPLTLSVTTGQPASISCKSSQSLLDSDGKTYLNWLFQRPGESPKLLIYVVSKLESGVPDRFTGSGSGTDFTLKISRVEAEDLGVYYCLQATHFPWTFGGGTKLEIKR
notes: also called DVD738H/DVD738L
Take B11: the Kd in experiment [2] was below 0.03 nM.
